Test results published in the supplement of paper PMC12042874.
± gives the uncertainty stated by the source.

assay: amyloid nucleation score (Sup35N fusion, yeast selection) (log enrichment); library NNK3; higher = more nucleation; inactive = no reads after selection
How it was run: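 Libraries of peptides of 20 random codons fused to Sup35N were expressed in psi-negative yeast and induced 24 hours with 100 μM copper sulfate. Selection was 7 days at 30°C on medium lacking adenine and uracil, and plasmid inserts were Illumina-sequenced before and after selection. Nucleation score is the DiMSum log enrichment of output over input reads, centred on the mode score of non-aggregating sequences, and sequences with under 100 input reads were left out.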

Row | Substance | amyloid nucleation score
1 | YSFLGRNSIISCIR | inactive
2 | NTPRRLHSYLFSTLWY | inactive
3 | YRKMRAEEDKWMVWVYSRRC | inactive
4 | GTIRVYIKTNDATVIGEHHA | 1.21 ± 0.13
5 | MSSHFSSKAFGFHYGF | inactive
6 | SWIVNKVF | inactive
7 | FRFWPFSPICNWY | inactive
8 | FAGDLRDCWFLSFV | inactive
9 | DCDRILLV | inactive
10 | VAFMIHYMKLPKYSHPWVHN | 0.041 ± 0.59
11 | TYEVRTCWDWQRMGSMYLAR | inactive
12 | LNSKIKLNYYLIF | 0.108 ± 0.19
13 | FKRGTCISSSNYNIYCYWKC | inactive
14 | HEYSSKILMM | inactive
15 | QQIFRDNCPVGSRFIFLSR | inactive
16 | RSNTQGLPQYKC | inactive
17 | EMAEAGTFEGYSLSVSVSAD | inactive
18 | FGTHFIESSNVNNNTPVVSP | inactive
19 | YQLELSSGSM | 0.116 ± 0.28
20 | TFRWFDGIKTLMMD | inactive
21 | TGIGSLCVLRLTYFIRVSIA | inactive
22 | RILALCGHRGNGLQGYILLD | 0.744 ± 0.13
23 | LDQTSRIVYVFTCSYWLDKV | inactive

Row | Substance | amyloid nucleation score
24 | VLVSVGLVLWACCLRLQ | inactive
25 | DCERVFSYMRKDQVPPVTLS | inactive
26 | MFMRIRSLIE | inactive
27 | ELRTNYRKLLSSQAEVGCMV | inactive
28 | CSLQNVTVGLLHSQVVSRWE | inactive
29 | RHLTVWLL | inactive
30 | KALGAEYNTHGTVSGCSLCK | inactive
31 | GQPGQ | inactive
32 | ALQFATVDGKVLSI | inactive
33 | SWTSEGDWHYFGYIEVVWHY | inactive
34 | RFNHMRNGFWRSIS | inactive
35 | GLNYS | inactive
36 | VGHPFNCSLDCF | inactive
37 | QSGSTLTMLQWVIPSDSKLM | inactive
38 | LGSWLWR | inactive
39 | YYGMMYEGGYAVIDIGLGHL | inactive
40 | LRVTKQVLSSMMFTITFGGD | inactive
41 | TVGGEIVNSLGVWCYRVCKR | 0.723 ± 0.26
42 | CQVWFTYYYLLGSTNDSMAR | inactive
43 | KQFRVWFCYFL | 0.565 ± 0.14
44 | MYETVR | inactive
45 | HCCFVWERRNACGMVSSWMT | inactive
46 | FFVFSRLVYPWCGMFFLSLK | inactive

Row | Substance | amyloid nucleation score
47 | LLFQSIVVY | inactive
48 | RASKRLCWSG | inactive
49 | WWSCGILSKPFFWYISRTF | inactive
50 | SVGRSST | inactive
51 | SNWVLACYKI | inactive
52 | FVSVLACSDKLGK | inactive
53 | GVRLNVDRAVKVARELFH | inactive
54 | WFCNYRIMYKVSSIAPMLNP | inactive
55 | CNVTLSSTYEK | inactive
56 | EFIALSVFLLNFVSCLWSNV | inactive
57 | YYLSFVKKCNDSEVIWTKSV | inactive
58 | FGSFQMGLWFVMNEVDQVKG | inactive
59 | LLWVQQHWLKNDTLVTYKAK | inactive
60 | TFWLH | 0.156 ± 0.88
61 | CINVFMQEPPPINIRWNCRE | 2.54 ± 0.061
62 | VGSIARLFVQTAMPVPKLAR | inactive
63 | CTDRRVRWGYGFKFRFGHGD | inactive
64 | YVCSDSMLEARVREGTEYRS | -0.259 ± 0.98
65 | LSKLTSSQAGKG | inactive
66 | HEIQGC | inactive
67 | LGMCSHESYNLHEEICIW | inactive
68 | PNCLMS | inactive
69 | FCRIAVMFKSNQELYRMDNG | inactive

Row | Substance | amyloid nucleation score
70 | NTRREDSGWTNLCFWCARN | 2.01 ± 0.052
71 | ARRNYHRAINFGGSCAIINK | inactive
72 | CFLSWWLRDLVLSSCSTYVD | inactive
73 | FFAILHLRVNARMCYGNGAY | 0.435 ± 0.48
74 | MIRLSDTRRWIVYFHQCLCG | -0.748 ± 1
75 | LGRANIHATIACM | inactive
76 | YPSCRTSLSARHMVFQGITL | inactive
77 | NILPRRGEQAV | inactive
78 | SCFVCNF | 2.86 ± 0.059
79 | FSLVMDCI | inactive
80 | VDMSNFRANVVTHSPIGGLR | inactive
81 | SISWRYWKSI | inactive
82 | VTCPNFQKIYRQGCYGGFDT | inactive
83 | NWNSSHLNREYTRHFSGMMV | inactive
84 | TYYADTLAFNSTS | inactive
85 | SFLCLISIHCTDNDNGMHNC | inactive
86 | YIVLAPCWCHIGSIDLAVPH | 3.01 ± 0.06
87 | ENSGWSKRVFSSFFMIAMMY | inactive
88 | HYVKPSSESRR | inactive
89 | RAYTDV | inactive
90 | CRNESLACSKMSPSQRRSYT | inactive
91 | FWLLVFPGNMMSS | 0.818 ± 0.14
92 | GPAVWPKWVSLAKWYPSEI | inactive

Row | Substance | amyloid nucleation score
93 | YIKCKFF | inactive
94 | NGFKEGLIAVLREQYLSYQ | inactive
95 | LPYPPAITALPRPCCVNHRV | inactive
96 | NAYTAHGYDKLRNQSKVAYR | inactive
97 | RLVPFTWGHIPG | inactive
98 | VDNSFEYIWDLFTVDHMSGA | inactive
99 | NEWIKDINVI | inactive
100 | HLLPLYTKSIVGYTTNAIPN | inactive
101 | MSNGIVYNELFSVVRWS | 1.67 ± 0.071
102 | SKVACTRLDCMVFKCGTS | inactive
103 | HPVYMVSTRWRRGGSDWV | inactive
104 | GSRGYGWFMKTFAYPRNCKN | inactive
105 | LFHSAMNGSHFSTVHSNSVI | inactive
106 | TDCELGLLRL | inactive
107 | EGGCYSPKHG | 0.741 ± 0.28
108 | EALLSSLIIFIDQRGVCEFV | inactive
109 | QQVVSLEGRRTKVTLTYQGS | 1.04 ± 0.11
110 | RGANYVFGWKITVNAFEGEC | 0.838 ± 0.14
111 | NAIGEISSVYSCTL | inactive
112 | NFVPVYSLSRRAVLGHTGWC | inactive
113 | ITYSMLVVVQNLA | 1.75 ± 0.1
114 | RVGSACNRNSLRKESCTPVQ | inactive
115 | WNAYVHTNNV | inactive

Row | Substance | amyloid nucleation score
116 | NLESTNTMSYIWYRADSKCG | inactive
117 | FLRCIC | inactive
118 | SENSRRSLSAYFLQYGLWFW | inactive
119 | LKISALTIESMF | inactive
120 | YYWMAWRTLGAVRAG | -0.458 ± 0.5
121 | SNIMHQNVTCESFYCRSSLW | 1.81 ± 0.067
122 | QKAVIGM | inactive
123 | GYFSLPIGGVVRTGVMLDE | inactive
124 | VLPNYPSFNSSYICWYFWYL | inactive
125 | SWSARVKVLLVVGCNVSVFC | 0.842 ± 0.2
126 | RVYGLFTLQYWYLNLYTKGR | 0.548 ± 0.36
127 | SSNFVFNLPSTWWSYYMTWV | -0.216 ± 0.75
128 | DYIRRWLVYAYDKVFCRLTV | inactive
129 | IHLVFREDITLVWVWNWIHV | inactive
130 | CFPASCIQ | inactive
131 | LYDVGYKGQMVDGGTVCCER | -0.257 ± 0.8
132 | IPVLLPSMCINNKFMVSSWN | 1.39 ± 0.1
133 | DRCNVGRYLG | inactive
134 | SGFPMVSIFESSI | inactive
135 | SIKYSGFMWTWVNLLDPTVP | inactive
136 | GSTTCLYTSIPCCAGVLS | 0.449 ± 0.21
137 | RERVATFQQPTRHGGGSLAS | inactive
138 | AGHYLLSPGYQMMLERSNRS | inactive

Row | Substance | amyloid nucleation score
139 | DNSSLSMK | inactive
140 | MSVACFSLASVFQWGFFASC | inactive
141 | NYLRSVLMASGWYWILCIHF | inactive
142 | IDLRVTRNIFQSATLLMFFW | inactive
143 | CVNKFLSVPSIDSEDFCYLV | inactive
144 | LFGFLYFVV | -0.564 ± 0.82
145 | VFNMLGFSDY | inactive
146 | TLHVCIVLSPGRW | inactive
147 | SWLFVDLYSFHFCFSNYVSY | inactive
148 | HQNSCDMLFRLSSTYLWGRA | inactive
149 | SNSVFIWYWPEWVEDWSSWL | 0.607 ± 0.16
150 | RFISLVRNYFFTCCRRRSMF | inactive
151 | MVSDIGWYLLQFTERRSCFY | inactive
152 | YMVVFSVNDRMFVPFY | 0.926 ± 0.15
153 | MTWNVGRADGFLRSSCSNFR | inactive
154 | GCVAAMS | inactive
155 | RAGVVVFIRRLRRLMGTLGA | -0.005 ± 1.1
156 | VRFYVLSPKDFWAFLKILFR | inactive
157 | VNSDEPMHWRSSGNYRARIV | inactive
158 | IRGSHGRWYSTHNCLTCDME | inactive
159 | ITGFLFRVVW | 0.829 ± 0.13
160 | YSGDSWYVLYVGNPPGDYWR | 1.66 ± 0.09
161 | SLGEKMNVASLQAVMSC | inactive
